Among the data in PMC9813914, “Structural Basis for a Cork-Up Mechanism of the Intra-Molecular Mesaconyl-CoA Transferase” (Biochemistry, 2022) are Km and kcat values, retold here.

Substrate in data set [1]: C/C(=C\C(=O)SCCNC(=O)CCNC(=O)[C@H](O)C(C)(C)COP(=O)(O)OP(=O)(O)OC[C@H]1O[C@@H](n2cnc3c(N)ncnc32)[C@H](O)[C@@H]1OP(=O)(O)O)C(=O)O
Briefly: purified protein. The class given is biochemical, Chloroflexus aurantiacus. Conditions: 200 mM HEPES/KOH pH 8.0, 55 °C, 22 nM Mct, intra-molecular CoA transfer C4 to C1.

Substrate in data set [2]: C/C(=C\C(=O)O)C(=O)SCCNC(=O)CCNC(=O)[C@H](O)C(C)(C)COP(=O)(O)OP(=O)(O)OC[C@H]1O[C@@H](n2cnc3c(N)ncnc32)[C@H](O)[C@@H]1OP(=O)(O)O
In words: purified protein. The format is biochemical, Chloroflexus aurantiacus. Conditions: 200 mM HEPES/KOH pH 8.0, 55 °C, 22 nM Mct, intra-molecular CoA transfer C1 to C4.

B1: Mct (mesaconyl-CoA transferase; mesaconyl-C1:C4-CoA CoA transferase) (Chloroflexus aurantiacus J-10-fl) (protein)
chain: MKGILHGLRVVEGSAFVAAPLGGMTLAQLGADVIRFDPIGGGLDYKRWPVTLDGKHSLFWAGLNKGKRSIAIDIRHPRGQELLTQLICAPGEHAGLFITNFPARGWLSYDELKRHRADLIMVNLVGRRDGGSEVDYTVNPQLGLPFMTGPVTTPDVVNHVLPAWDIVTGQMIALGLLAAERHRRLTGEGQLVKIALKDVGLAMIGHLGMIAEVMINDTDRPRQGNYLYGAFGRDFETLDGKRVMVVGLTDLQWKALGKATGLTDAFNALGARLGLNMDEEGDRFRARHEIAALLEPWFHARTLAEVRRIFEQHRVTWAPYRTVREAIAQDPDCSTDNPMFAMVEQPGIGSYLMPGSPLDFTAVPRLPVQPAPRLGEHTDEILLEVLGLSEAEVGRLHDEGIVAGPDRAA
notes: intertwined homodimer
Broadly, the Km is the substrate concentration at which the rate is half of its maximum. What is called kcat is the number of substrate molecules converted per active site and unit of time at saturation. For the protein B1, in data set [1], the Michaelis-Menten constant (Km) worked out at 200 µM and the kcat worked out at 320 s⁻¹. Further, in data set [2], the Michaelis-Menten constant (Km) was 160 µM and the kcat was 370 s⁻¹.
